Measurements: patent US20260152729A1, “NOVEL NKR VARIANTS FOR INCREASED PRODUCTION OF ISOBUTANOL” (Gevo, Inc., priority 2020, published 2026)

Tests used:
[1] = Kinetic parameters of Se1_NKR and Se2_NKR for acetolactate, as set in the model; assay type: biochemical; settings: parameter set in the model
Description: (§1) Where nNKR is the number of copies of NKR integrated into the yeast genome, kcatis the first order rate constant, AL is the cytosolic concentration of acetolactate, Km is the Michaelis constant for acetolactate, DHIV is the concentration of DHIV, and KiDHIV is the inhibition constant for DHIV. […] This also assumes that all copies of NKR are expressed equally regardless of promotor or where it is integrated in the genome.

[2] = DHIV inhibition constant of Se1_NKR and Se2_NKR, as set in the model; assay type: biochemical; settings: parameter set in the model; read-out: KiDHIV
Description: as §1

[3] = KARI enzyme KM assay with NADH, purified enzymes; assay type: biochemical, Slackia exigua; settings: for Vmax: 0.1 mg/mL of enzyme
Experimental: (§2) In this example, three different KARI Gen6 variant enzymes (v1, v48, and v65) and parent enzyme Se1_NKR_gen 6 were screened for their activity with NADH as cofactor. The enzymes were expressed E. coli, and resulting transformants were cultivated in shake flask fermentations as described below and samples were taken after 44h, centrifuged at 4000×g for 10 mins at 4° C. and the cell pellets were stored at −80° C. until analysis. The pellets were lysed by bead beating and the lysates were analyzed by KARI activity assay as described below using NADH and NADPH as cofactors.
(§3) KARI Enzyme Assay: The assay and no substrate control reactions were performed in triplicate for each sample. For the KM assay, the reaction samples comprised 100 mM potassium phosphate, pH 6.8 or 7, 10 mM MgCl2, 1 mM DTT, 200 μM NADH, 0-10 mM 2-acetolactate, and 0.1 mg/mL of enzyme. For the Ki assay, the reaction samples comprised 100 mM potassium phosphate, pH 6.8 or 7, 10 mM MgCl2, 1 mM DTT, 200 μM NADH, 1 mM 2-acetolactate, 0-40 mM R-DHIV, and 0.1 mg/mL of enzyme. For the no substrate controls, the 2-acetolactate was substituted with water. 10 μL of each lysate were transferred into a 96 well half area assay plate. The reaction was started with 90 μL of reaction buffer to each well using a multichannel pipette. The samples were mixed immediately. The samples were read at 340 nm every 10 seconds for 5 minutes.
(§4) The purified enzymes encoded by Se1_NKR_Gen6 (Se1), Se1_NKR_v1 (v1), Se1_NKR_v48 (v48), and Se1_NKR_v65 (v65) under two conditions: 33° C. at pH 6.8 and 30° C. at pH 7 were characterized.

[4] = KARI enzyme Ki assay (product inhibition) with NADH, purified enzymes; assay type: biochemical, Slackia exigua; settings: for IC50 / Ki: 1 mM 2-acetolactate, 0-40 mM R-DHIV; for catalytic efficiency using KM apparent = KM*(1+[product]/Ki), compared to Se1_NKR: 1 mM DHIV; for catalytic efficiency (KM apparent) versus increasing concentrations of DHIV (FIG. 14A-B): both conditions (33° C., pH 6.8 and 30° C., pH 7.0)
Experimental: as §2, §3, §4
In order to determine the impact of all three parameters (kcat, KM, and Ki) to more closely determine the impact of the new variants in vivo, the catalytic efficiency for each enzyme using the KM apparent, which is equal to KM*(1+[product]/Ki), was calculated. […] At this DHIV concentration level, in vivo, at 33° C., pH 6.8, m48 would be 157%, Se1_NKR_v1 would be 139%, and Se1_NKR_v65 would be 118% improved compared to Se1_NKR. For example, in vivo, cells expressing Se1_NKR-v48, it would be expected that 16 fewer copies of the enzyme could potentially achieve 36% less protein while achieving 0.35 g/g yeast efficiency.

Isobutanol Production = assay: Simple shake flask fermentation, final relative isobutanol concentration; assay type: cell-based; settings: enzyme on vector; for Isobutanol Concentration relative to Se1_NKR control (WT): final concentration
Description: This improvement in isobutanol production is expected to increase with multiple copies of the Se1_NKR_v1 variant enzyme incorporated into the host cell genome.

[5] = system: isobutanol producing yeast strains; assay: Genome scale metabolic modeling (iMM904) of isobutanol yield, batch simulation; parameters: species or system S. cerevisiae; settings: cells with 16 fewer copies of the enzyme, 36% less protein
Experimental: The iMM904 metabolic reconstruction of S. cerevisiae metabolism served as the basis of the model. The model consists of a matrix of stoichiometric coefficients that represent metabolic and transport reactions encoded by 904 genes. Reactions were added as new columns to the matrix while new rows were added for additional metabolites. The native pathway for making isobutanol in the yeast mitochondria was turned off. A summary of these changes is found in Table 2 below. With these changes made, the maximum isobutanol yield from glucose in the model was approximately 0.38 g/g. If the model was altered to not produce glycerol, the yield increased to 0.41 g/g.
With more reactions than metabolites, metabolic networks have a near infinite number of solutions for any given condition. In flux balance analysis, the flux distribution is obtained by finding the solution that maximizes an objective function. […] Each flux is bounded by known limits of each reaction, though the bounds are mostly set by thermodynamic reversibility. […]
While all other reactions in the isobutanol pathway were set by reversibility only, the upper bound of flux through NKR (vnkr) was set by the kinetics of Se1 and Se2 NKR. Flux was calculated by the following equation: […]
The benefits of improving either NKR enzyme in a strain with an equal number of both was calculated to predict which enzyme was best to engineer. […]

[6] = generally, under the two conditions

Row | Molecule | Kcat ([3]; 30° C., pH 7) | Km ([3]; 30° C., pH 7) | Vmax ([3]; 30° C., pH 7) | Kcat ([3]; 33° C., pH 6.8) | Km ([3]; 33° C., pH 6.8) | Vmax ([3]; 33° C., pH 6.8) | IC50 ([4]; 30° C., pH 7) | Ki ([4]; 30° C., pH 7) | IC50 ([4]; 33° C., pH 6.8) | Ki ([4]; 33° C., pH 6.8) | Isobutanol Concentration relative to Se1_NKR control (WT) (Isobutanol Production) | catalytic efficiency using KM apparent = KM*(1+[product]/Ki), compared to Se1_NKR ([4]; 33° C., pH 6.8) | catalytic efficiency (KM apparent) versus increasing concentrations of DHIV (FIG. 14A-B) [4] | also measured
1 | Se1_NKR: NADH-dependent ketol-acid reductoisomerase from Slackia exigua (S. exigua KARI, SEQ ID NO: 2); parent enzyme of the variants (protein, listed as Slackia exigua) MSVKTKEKEMAVTILYEQDVDPKVIQGLKVGIIGYGSQGHAHALNLMDSGVDVRVGLREGSSSWKTAEEAGLKVTDMDTAAEEADVIMVLVPDEIQPKVYQEHIAAHLKAGNTLAFAHGFNIHYGYIVPPEDVNVIMCAPKGPGHIVRRQFTEGSGVPDLACVQQDATGNAWDIVLSYCWGVGGARSGIIKATFAEETEEDLFGEQAVLCGGLVELVKAGFETLTEAGYPPELAYFECYHEMKMIVDLMYESGIHFMNYSISNTAEYGEYYAGPKVINEQSREAMKEILKRIQDGSFAQEFVDDCNNGHKRLLEQREAINTHPIETTGAQIRSMFSWIKKED | 442 s⁻¹ | 711 µM | 1.30 mM/s | 382 s⁻¹ | 419 µM | 1.12 mM/s | 1810 µM | 752 µM | 2600 µM | 768 µM | 100% | – | – | Kcat [1]: 2.6 s⁻¹; Km [1]: 430 µM; Ki [2]: 1100 µM
2 | V1: Se1_NKR Gen6 variant with mutations M77I, V91I, K290A, Q330N as printed in Table 5; e.g. SEQ ID NO: 90 (protein, listed as Slackia exigua, SITE 1..350 Se1_NKR_v1 protein) MSVKTKEKEMAVTILYEQDVDPKVIQGLKVGIIGYGSQGHAHALNLMDSGVDVRVGLREGDSDWKTAEEAGLKVTDIDTAAEEADVIMVLIPDEVQPKVYQEHIAAHLKAGNTLAFAHGFNIHYGYIVPPEDVNVIMCAPKGPGHIVRRQFTEGSGVPDLACVQQDATGNAWDIVLSYCWGVGGARSGIIKATFAEETEEDLFGEQAVLCGGLVELVKAGFETLTEAGYPPELAYFECYHEMKMIVDLMYESGIHFMNYSISNTAEYGEYYAGPKVINEQSREAMKEILARIQDGSFAQEFVDDCNNGHKRLLEQREAINTHPIETTGARIRSMFSWIKKEDLEHHHHHH | 555 s⁻¹ | 566 µM | 1.63 mM/s | 491 s⁻¹ | 407 µM | 1.45 mM/s | 2300 µM | 832 µM | 2880 µM | 834 µM | 105% | 139% | decreasing catalytic efficiencies | KM for acetolactate, comparison of the variants [3, 6]: best (lowest); isobutanol concentration compared with the WT enzyme, in words (Isobutanol Production): significantly more isobutanol than the WT enzyme
3 | V65: Se1_NKR Gen6 variant with mutations G31A, V91I, Q330N as printed in Table 5; e.g. SEQ ID NO: 94 (protein, listed as Slackia exigua, SITE 1..350 Se1_NKR_v65 protein) MSVKTKEKEMAVTILYEQDVDPKVIQGLKVAIIGYGSQGHAHALNLMDSGVDVRVGLREGDSDWKTAEEAGLKVTDMDTAAEEADVIMVLIPDEVQPKVYQEHIAAHLKAGNTLAFAHGFNIHYGYIVPPEDVNVIMCAPKGPGHIVRRQFTEGSGVPDLACVQQDATGNAWDIVLSYCWGVGGARSGIIKATFAEETEEDLFGEQAVLCGGLVELVKAGFETLTEAGYPPELAYFECYHEMKMIVDLMYESGIHFMNYSISNTAEYGEYYAGPKVINEQSREAMKEILKRIQDGSFAQEFVDDCNNGHKRLLEQREAINTHPIETTGARIRSMFSWIKKEDLEHHHHHH | 602 s⁻¹ | 673 µM | 1.77 mM/s | 538 s⁻¹ | 510 µM | 1.58 mM/s | 2040 µM | 821 µM | 2370 µM | 801 µM | 103% | 118% | decreasing catalytic efficiencies | –
4 | V48: Se1_NKR Gen6 variant with mutations G31A, M77I, Q330N as printed in Table 5; e.g. SEQ ID NO: 92 (protein, listed as Slackia exigua, SITE 1..350 Se1_NKR_v48 protein) MSVKTKEKEMAVTILYEQDVDPKVIQGLKVAIIGYGSQGHAHALNLMDSGVDVRVGLREGDSDWKTAEEAGLKVTDIDTAAEEADVIMVLVPDEVQPKVYQEHIAAHLKAGNTLAFAHGFNIHYGYIVPPEDVNVIMCAPKGPGHIVRRQFTEGSGVPDLACVQQDATGNAWDIVLSYCWGVGGARSGIIKATFAEETEEDLFGEQAVLCGGLVELVKAGFETLTEAGYPPELAYFECYHEMKMIVDLMYESGIHFMNYSISNTAEYGEYYAGPKVINEQSREAMKEILKRIQDGSFAQEFVDDCNNGHKRLLEQREAINTHPIETTGARIRSMFSWIKKEDLEHHHHHH | 717 s⁻¹ | 683 µM | 2.11 mM/s | 647 s⁻¹ | 533 µM | 1.90 mM/s | 2450 µM | 996 µM | 3030 µM | 1050 µM | 104% | 157% | highest catalytic efficiencies | expected yield (printed: yeast efficiency) [5]: 0.35 g/g; rate (kcat or VMAX), comparison of the variants [3, 6]: best (highest); Ki for DHIV, comparison of the variants [4, 6]: best (highest)
